The text below walks through data of PMC4824069.

The target in this test is HEY1 (UniProt Q9Y5J3). The test can be described thus: co-IP of Flag-DPF3a and HA-HEY1. The settings on record: reference: wild type; sites S348.
UniProt Q9Y5J3, sequence (Q9Y5J3 whole entry, looked up): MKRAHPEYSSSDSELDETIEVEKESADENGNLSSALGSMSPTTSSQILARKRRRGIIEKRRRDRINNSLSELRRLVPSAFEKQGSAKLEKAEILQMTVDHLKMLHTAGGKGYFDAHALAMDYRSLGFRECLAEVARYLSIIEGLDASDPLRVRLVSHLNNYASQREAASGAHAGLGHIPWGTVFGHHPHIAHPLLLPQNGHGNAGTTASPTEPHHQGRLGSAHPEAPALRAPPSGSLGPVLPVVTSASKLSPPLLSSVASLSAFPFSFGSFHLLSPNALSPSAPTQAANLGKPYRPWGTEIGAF

Take “DPF3a (BAF45c1) (from UniProt Q92784-2) S348A”: the “binding against the reference” value is “weaker”.
